The target in the assay is Myc-DDK tagged human CD2-associated protein (human, UniProt Q9Y5K6 1-639). Description: peptide or protein array.
Chain of Myc-DDK tagged human CD2-associated protein (Q9Y5K6 whole entry): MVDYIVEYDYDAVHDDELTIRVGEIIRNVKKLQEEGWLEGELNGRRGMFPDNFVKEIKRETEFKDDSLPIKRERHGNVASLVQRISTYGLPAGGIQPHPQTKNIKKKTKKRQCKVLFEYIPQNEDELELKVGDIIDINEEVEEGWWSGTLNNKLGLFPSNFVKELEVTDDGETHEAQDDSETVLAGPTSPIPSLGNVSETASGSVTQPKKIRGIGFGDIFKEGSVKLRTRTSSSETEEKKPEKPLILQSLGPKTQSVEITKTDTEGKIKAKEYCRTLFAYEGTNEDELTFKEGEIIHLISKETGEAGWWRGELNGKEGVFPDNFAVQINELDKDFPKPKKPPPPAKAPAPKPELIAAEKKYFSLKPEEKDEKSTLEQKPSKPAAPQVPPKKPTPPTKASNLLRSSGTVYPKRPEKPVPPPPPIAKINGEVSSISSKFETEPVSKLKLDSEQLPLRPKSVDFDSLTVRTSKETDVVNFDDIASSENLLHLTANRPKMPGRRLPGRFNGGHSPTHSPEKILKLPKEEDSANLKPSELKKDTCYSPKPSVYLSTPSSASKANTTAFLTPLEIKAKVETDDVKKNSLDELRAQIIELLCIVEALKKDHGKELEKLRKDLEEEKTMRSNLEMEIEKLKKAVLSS

For the molecule EAPQQRPVVPPRRPP [TKS4 peptide 188], the binding result is “binds”.

As to QRPVVPPRRPPPPKK [TKS4 peptide 189], the binding result was “binds”.
